In patent US20110052595A1 (Kyowa Kirin, published 2011):

B1: anti-HB-EGF monoclonal antibody KM3566 (antibody, V domains shown)
VH: QVQLQQSGTELARPGASVKLSCKASGYTFRTYGITWVKQRTGQGLEWIGEIFPGSGNTYYNEKFKGKASLTADKSSSTAYMQLSSLTSEDSAVYFCARESFSDGYYGYFDYWGQGTTLTVSS
VL: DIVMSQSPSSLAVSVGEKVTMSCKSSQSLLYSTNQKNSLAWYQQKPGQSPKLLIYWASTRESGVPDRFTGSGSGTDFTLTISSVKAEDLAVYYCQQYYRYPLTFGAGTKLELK
notes: also called anti-HB-EGF mouse antibody KM3566; monoclonal antibody produced by hybridoma KM3566 (FERM BP-10490)
B2: anti-HB-EGF chimeric antibody KM3966 (antibody, V domains shown)
VH: QVQLQQSGTELARPGASVKLSCKASGYTFRTYGITWVKQRTGQGLEWIGEIFPGSGNTYYNEKFKGKASLTADKSSSTAYMQLSSLTSEDSAVYFCARESFSDGYYGYFDYWGQGTTLTVSS
VL: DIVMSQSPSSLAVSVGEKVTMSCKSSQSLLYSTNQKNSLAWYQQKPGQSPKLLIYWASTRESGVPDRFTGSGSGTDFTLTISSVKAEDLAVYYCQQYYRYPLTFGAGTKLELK
notes: also called human chimeric antibody KM3966; anti-HB-EGF monoclonal antibody KM3966

Tests used:
[1] = biological target: bovine serum albumin (BSA) (bovine, UniProt P02769 25-607); test: binding ELISA
[2] = biological target: T1, recombinant secretory human HB-EGF manufactured by R & D System (catalogue number 259-HE/CF) (human, UniProt Q99075 63-148, biotin-labeled with EZ-Link Sulfo-NHS-Biotin in the EGFR binding inhibition assay only); test: Biacore T-100, HB-EGF immobilized on CM5 chip, antibody as analyte
T1 construct: Bought protein; also called recombinant human HB-EGF; secretory HB-EGF
Description: In order to analyze binding activities of a mouse antibody KM3566 and the chimeric antibody KM3966 for human HB-EGF in reaction kinetics, the binding activity measurement was carried out using Biacore. All of the following operations were carried out using Biacore T-100 (manufactured by Biacore). Human HB-EGF (manufactured by R & D) prepared into 5 μg/ml using HBS-EP Buffer (manufactured by Biacore) was immobilized onto a CM 5 sensor chip (manufactured by Biacore) to a level of 80 RU (resonance unit) by an amine coupling method. Thereafter, each antibody diluted 5-fold from 9 nmol/l was let flow on the chip at a rate of 10 μl/min, and by analyzing the sensor-gram at each concentration, the association rate constant and dissociation rate constant of each antibody for human HB-EGF were calculated.
It was confirmed based on the results that both antibodies almost the same binding activity for human HB-EGF.

[3] = biological target: T2, mutant HB-EGF in which serine at position 147 from the N-terminal was substituted with threonine (human, UniProt Q99075 63-148); test: cell ELISA, biotin-labeled antibody on mutant HB-EGF gene-transferred LMTK cells, corrected for expression with H-6
T2 construct: Transiently expressed on mouse LMTK cells; also called S147T
T2 chain: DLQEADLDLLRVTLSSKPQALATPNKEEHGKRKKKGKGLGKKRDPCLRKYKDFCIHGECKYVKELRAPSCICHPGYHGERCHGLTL
Description: Firstly, biotin-labeled anti-HB-EGF antibody (KM3566, KM3579 or KM3966) diluted to 2 μg/ml with a binding buffer (prepared by adding nonessential amino acids, 20 mM HEPES-NaOH (pH 7.2) and 10% fetal bovine serum to Ham's F12) was allowed to react at 4° C. for 2 hours with 1×10⁵ cells of the mutant HB-EGF gene-transferred cell, human/mouse chimeric HB-EGF gene-transferred cell or mock. After the reaction, the cells were washed twice with an ice-cooled washing buffer (prepared by adding 0.5 mM CaCl₂, 0.5 mM MgCl₂ and 0.1% fetal bovine serum to PBS) and then once with PBS(+) (prepared by adding 0.5 mM CaCl₂ and 0.5 mM MgCl₂ to PBS). A formaldehyde solution diluted to 1.8% with PBS(+) was added to the washed cells, and the cells were fixed at 4° C. for 20 minutes. […] By carrying out development of color using a peroxidase detection kit (ELISA POD Substrate OPD Kit, manufactured by Nacalai Tesque), the absorbance at 492 nm was measured and the activity of cell-bonded HRP was measured.
A value obtained by subtracting the absorbance for mock from the absorbance for each of the various mutant HB-EGF gene-transferred cells or human/mouse chimeric HB-EGF gene-transferred cells of the anti-HB-EGF antibody was used as the value A. […]

bovine serum albumin (BSA), sequence (P02769 25-607 limits assumed): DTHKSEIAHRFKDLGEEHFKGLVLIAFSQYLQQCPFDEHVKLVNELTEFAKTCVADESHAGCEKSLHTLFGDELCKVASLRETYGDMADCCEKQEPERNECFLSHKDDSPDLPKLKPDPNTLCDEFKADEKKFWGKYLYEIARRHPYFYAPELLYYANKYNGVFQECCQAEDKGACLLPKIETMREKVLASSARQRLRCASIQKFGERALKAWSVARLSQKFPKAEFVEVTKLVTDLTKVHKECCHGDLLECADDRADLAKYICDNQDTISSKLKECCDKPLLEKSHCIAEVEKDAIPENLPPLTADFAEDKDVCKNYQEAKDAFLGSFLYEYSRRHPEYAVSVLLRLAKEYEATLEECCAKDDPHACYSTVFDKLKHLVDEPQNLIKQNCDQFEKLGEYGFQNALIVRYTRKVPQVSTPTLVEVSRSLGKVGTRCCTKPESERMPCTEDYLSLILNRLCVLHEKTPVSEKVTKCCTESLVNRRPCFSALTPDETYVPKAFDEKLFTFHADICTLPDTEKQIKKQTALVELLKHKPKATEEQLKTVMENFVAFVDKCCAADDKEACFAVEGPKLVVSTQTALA

Binder	binding result [1]	kon [2] [M⁻¹ s⁻¹]	relative binding activity (ratio to pRTHGC-6) [3]
B1	no binding	270000	
B2		240000	~0.33 fraction of binding to pRTHGC-6
